Values of other authors as cited in publication PMC3669279.
Like-named read-outs stand apart in the source and are kept apart here.

Columns and labels:
[1] = target: protective antigen (PA) (Bacillus anthracis) (UniProt P13423)
[2] = target: protective antigen (PA) (Bacillus anthracis) (UniProt P13423); remark: listed apart in the source

| Substance | Kd [1] | Kd [2] |
| --- | --- | --- |
| edema factor (EF) (from UniProt P40136) | 1 nM | – |
| lethal factor (LF) (from UniProt P15917) | – | 1 nM |
